From IntAct's records for PubMed 19135897 come the findings set out here.

The labels stand for the following.
B1: Mitochondrial Rho GTPase 1 (Homo sapiens), Q8IXI2 (parent)
chain: MKKDVRILLVGEPRVGKTSLIMSLVSEEFPEEVPPRAEEITIPADVTPERVPTHIVDYSEAEQSDEQLHQEISQANVICIVYAVNNKHSIDKVTSRWIPLINERTDKDSRLPLILVGNKSDLVEYSSMETILPIMNQYTEIETCVECSAKNLKNISELFYYAQKAVLHPTGPLYCPEEKEMKPACIKALTRIFKISDQDNDGTLNDAELNFFQRICFNTPLAPQALEDVKNVVRKHISDGVADSGLTLKGFLFLHTLFIQRGRHETTWTVLRRFGYDDDLDLTPEYLFPLLKIPPDCTTELNHHAYLFLQSTFDKHDLDRDCALSPDELKDLFKVFPYIPWGPDVNNTVCTNERGWITYQGFLSQWTLTTYLDVQRCLEYLGYLGYSILTEQESQASAVTVTRDKKIDLQKKQTQRNVFRCNVIGVKNCGKSGVLQALLGRNLMRQKKIREDHKSYYAINTVYVYGQEKYLLLHDISESEFLTEAEIICDVVCLVYDVSNPKSFEYCARIFKQHFMDSRIPCLIVAAKSDLHEVKQEYSISPTDFCRKHKMPPPQAFTCNTADAPSKDIFVKLTTMAMYPHVTQADLKSSTFWLRASFGATVFAVLGFAMYKALLKQR
B2: Mitochondrial Rho GTPase (Drosophila melanogaster (Fruit fly)), Q8IMX7 (parent)
chain: MGQYTASQRKNVRILLVGDAGVGKTSLILSLVSEEYPEEVPPRAEEITIPANVTPEQVPTSIVDFSAVEQSEDALAAEINKAHVVCIVYAVDDDDTLDRITSHWLPLVRAKCNPSLDGEGDAEAEAEGDTQREPIRKPIVLVGNKIDLIEYSTMDSVLAIMEDYPEIESCVECSAKSLHNISEMFYYAQKAVLHPTSPLYMMEEQELTSACKKSLVRIFKICDIDGDNLLNDYELNLFQRRCFNTPLQPQILDEVKAVIQKNVPDGIYNDAVTLKGFLFLHCLFIQRGRNETTWAVLRRFGYNDQLEMCQEYLRPPLKIPPGSSTELSHRGQQFLIAVFERYDRDGDGALSPEEHKMLFSTCPAAPWSYSTDIRKSCPINETTGWVTLHGWLCRWTLMTLIDVVKTMEYLAYLGFNVHENDSQLAAIHVTRERRIDLAKRQSSRSVYKCHVIGPKGSGKTGMCRGFLVEDMHKLIGKEFKTNVVNCINSVQVYGQEKHLILRDIDVRHALDPLQPQEVNCDVACLVYDSSNPRSFEYVARIYIKYYAESKIPVMIVGTKCDMDERRQDYLMQPSEFCDKYKLLPPHLFSLKTNKKELYTKLATMAAFPHLRQFGLMTEDPKLWLKAGLGVAAATMLGFIVLKTISAAGAHTR

Variants of B1 are the subject of assay [1]. The conditions noted are these: with kif5c_rat Kif5c.
The variants in assay [2] derive from B1. Particulars: with kif5c_rat Kif5c. The source holds these as a separate data set.
In assay [3] the parent is B1. The conditions noted are these: with kif5c_human KIF5C.
In the assay “kinh_rat Kif5b, Q2PQA9” the parent is B2. The conditions noted are these: with kinh_rat Kif5b.

kif5c_rat Kif5c, P56536, sequence (P56536 whole entry): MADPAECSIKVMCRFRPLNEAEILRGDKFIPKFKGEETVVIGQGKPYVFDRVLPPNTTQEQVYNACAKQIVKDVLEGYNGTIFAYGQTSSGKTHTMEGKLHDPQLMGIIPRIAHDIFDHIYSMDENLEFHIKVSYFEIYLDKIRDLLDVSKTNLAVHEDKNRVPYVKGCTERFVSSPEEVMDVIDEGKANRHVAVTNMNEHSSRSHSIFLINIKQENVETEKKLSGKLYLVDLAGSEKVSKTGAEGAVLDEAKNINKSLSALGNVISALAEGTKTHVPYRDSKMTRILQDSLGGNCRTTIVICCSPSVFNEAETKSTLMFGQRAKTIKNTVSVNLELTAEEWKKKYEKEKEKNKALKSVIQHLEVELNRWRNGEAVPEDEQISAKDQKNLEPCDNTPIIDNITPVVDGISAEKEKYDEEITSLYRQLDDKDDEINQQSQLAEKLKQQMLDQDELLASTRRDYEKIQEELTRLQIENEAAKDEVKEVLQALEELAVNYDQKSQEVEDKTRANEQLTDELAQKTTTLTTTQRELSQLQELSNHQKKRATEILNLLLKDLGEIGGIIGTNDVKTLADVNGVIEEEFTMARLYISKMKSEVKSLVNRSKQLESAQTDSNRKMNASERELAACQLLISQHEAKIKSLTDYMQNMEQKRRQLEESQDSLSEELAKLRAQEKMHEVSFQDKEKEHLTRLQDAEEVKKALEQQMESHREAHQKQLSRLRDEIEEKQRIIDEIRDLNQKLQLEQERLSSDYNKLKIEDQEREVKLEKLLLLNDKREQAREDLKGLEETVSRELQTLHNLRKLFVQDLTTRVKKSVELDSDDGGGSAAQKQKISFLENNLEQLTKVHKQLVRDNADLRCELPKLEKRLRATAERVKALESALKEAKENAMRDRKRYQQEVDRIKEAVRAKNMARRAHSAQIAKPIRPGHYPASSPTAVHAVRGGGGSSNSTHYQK
kinh_rat Kif5b, Q2PQA9, sequence (Q2PQA9 whole entry): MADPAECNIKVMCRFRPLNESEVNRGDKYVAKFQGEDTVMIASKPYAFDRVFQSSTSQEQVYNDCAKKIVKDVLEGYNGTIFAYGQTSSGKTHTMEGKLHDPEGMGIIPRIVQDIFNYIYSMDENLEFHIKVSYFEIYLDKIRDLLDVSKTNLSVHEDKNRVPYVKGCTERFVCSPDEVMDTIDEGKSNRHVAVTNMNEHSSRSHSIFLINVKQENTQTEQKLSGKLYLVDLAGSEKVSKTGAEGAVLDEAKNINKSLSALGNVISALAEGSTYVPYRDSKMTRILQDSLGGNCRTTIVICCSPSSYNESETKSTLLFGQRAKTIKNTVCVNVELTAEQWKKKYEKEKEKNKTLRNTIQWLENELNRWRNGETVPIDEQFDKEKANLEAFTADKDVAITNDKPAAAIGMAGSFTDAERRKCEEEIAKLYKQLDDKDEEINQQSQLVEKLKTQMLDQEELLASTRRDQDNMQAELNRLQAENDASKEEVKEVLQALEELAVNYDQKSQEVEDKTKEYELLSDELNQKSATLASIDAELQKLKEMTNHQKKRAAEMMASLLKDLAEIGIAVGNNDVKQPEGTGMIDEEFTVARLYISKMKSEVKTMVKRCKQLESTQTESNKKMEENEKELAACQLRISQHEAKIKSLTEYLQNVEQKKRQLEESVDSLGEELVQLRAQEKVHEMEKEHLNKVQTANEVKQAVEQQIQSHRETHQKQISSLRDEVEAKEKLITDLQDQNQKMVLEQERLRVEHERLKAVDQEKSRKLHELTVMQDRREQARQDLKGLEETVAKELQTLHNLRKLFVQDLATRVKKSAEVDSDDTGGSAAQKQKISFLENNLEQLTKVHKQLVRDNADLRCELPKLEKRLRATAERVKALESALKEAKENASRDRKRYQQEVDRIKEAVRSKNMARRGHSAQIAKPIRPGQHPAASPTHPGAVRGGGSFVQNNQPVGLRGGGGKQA

Turning to E208K;E328K, the “effect of a mutation on the interaction” value in the assay with kif5c_rat Kif5c, P56536 [1] is recorded as “decreasing interaction”; in the assay with kif5c_rat Kif5c, P56536 [2], “decreasing interaction”; in assay [3], “decreasing interaction strength”.
Take E234K;D345K: in the assay with kinh_rat Kif5b, Q2PQA9, the “effect of a mutation on the interaction” value is on record as “decreasing interaction”.
